Assay results reported in patent publication US20060003399A1, “High throughput actin polymerization assay” (Cytokinetics, Inc., priority 2004, published 2006).
“Also recorded” adds a separate entry of the source. Like-named read-outs stand apart in the source and are kept apart here.

B1: WASP VCA Domain: VCA domain of WASP (SEQ ID NO:6) (protein, listed as Homo sapiens)
chain: GGRGALLDQIRQGIQLNKTPGAPESSALQPPPQSSEGLVGALMHVMQKRSRAIHSSDEGEDQAGDEDEDDEWDD
modifications: (1)..(74) WASP VCA Domain
B2: GST tagged C. albicans FH2 domain: C. albicans FOR1 A1127 to K1598 (FH2 domain only), N-terminally tagged with GST-TEV (protein)
chain: AFDKIPRPKKKLKQLHWEKIDHSQVGNSFWNDPNTHTLVDDLMSKGIFDEIELIFAAKEAKKLATKKKEDLDKVTFLARDISQQFSINLHAFNSFSDEEFVLKVLRCDKDVLTNPAVLDFFGKEDIVEITNTLARNFEPYSTDYKTEEITKPEKDPNELQRPDRIYLELMYNLQHYWKSRTRALNVVVNYDKDVYEYVKKLRLIDEAVDSIKNSKHLKGVFEIILAVGNYMNDSAKQAHGFKLSSLQRLSFMKDEKNSMTFLHYVEKVIRTQYPEFLEFINELSCCNEITKFSIENINNDCKEYARAIKNVQSSIDIGNLSDVSKFHPSDRVLKAVLPALPRAKRKAELLLDQANYTMKEFDDLMKYFGEDPTDQFVKNSFISKFTDFMKDFKRVQAENIKREEELRVYEQRKKLLEKPKSSNNGDSNASDQDGESNEGDGGVMDSLLQRLKAAAPTKGESASARKKALMRK
modifications: left off: a dimerising Fc or GST
notes: C. albicans FOR1 A1127 to K1598 (FH2 domain only), N-terminally tagged with GST-TEV
B3: His6 tagged C. albicans FH1-FH2 domain: C. albicans FOR1 M972 to K1598 (FH1 and FH2 domains), C-terminally tagged with His6 (protein)
chain: MDPKFLQELSLKVGKAEPIQDANNKNQFGGPLSSSPEDVSQKHKTSGDSSDKDKVLSSPISSNDIKSPETGNSTTSSAAPPPPPPPPPPPPPPLPPILGGNNSSAAPPPPPPPPPPPAFLNGSGSVIPPAPPLPPPSSGRSSRSVPSTVTKSSGSAFDKIPRPKKKLKQLHWEKIDHSQVGNSFWNDPNTHTLVDDLMSKGIFDEIELIFAAKEAKKLATKKKEDLDKVTFLARDISQQFSINLHAFNSFSDEEFVLKVLRCDKDVLTNPAVLDFFGKEDIVEITNTLARNFEPYSTDYKTEEITKPEKDPNELQRPDRIYLELMYNLQHYWKSRTRALNVVVNYDKDVYEYVKKLRLIDEAVDSIKNSKHLKGVFEIILAVGNYMNDSAKQAHGFKLSSLQRLSFMKDEKNSMTFLHYVEKVIRTQYPEFLEFINELSCCNEITKFSIENINNDCKEYARAIKNVQSSIDIGNLSDVSKFHPSDRVLKAVLPALPRAKRKAELLLDQANYTMKEFDDLMKYFGEDPTDQFVKNSFISKFTDFMKDFKRVQAENIKREEELRVYEQRKKLLEKPKSSNNGDSNASDQDGESNEGDGGVMDSLLQRLKAAAPTKGESASARKKALMRK
modifications: left off: small tags and cut ends
B4: GST tagged C. albicans FH1-FH2 domain: C. albicans FOR1 M972 to K1598 (FH1 and FH2 domains), N-terminally tagged with GST-TEV (protein)
chain: B3 chain
modifications: left off: a dimerising Fc or GST
notes: C. albicans FOR1 M972 to K1598 (FH1 and FH2 domains), N-terminally tagged with GST-TEV
B5: 98 N-WASP: amino acids 98-501 of SEQ ID NO:4 (protein, listed as Homo sapiens)
chain: FVYNSPRGYFHTFAGDTCQVALNFANEEEAKKFRKAVTDLLGRRQRKSEKRRDPPNGPNLPMATVDIKNPEITTNRFYGPQVNNISHTKEKKKGKAKKKRLTKADIGTPSNFQHIGHVGWDPNTGFDLNNLDPELKNLFDMCGISEAQLKDRETSKVIYDFIEKTGGVEAVKNELRRQAPPPPPPSRGGPPPPPPPPHNSGPPPPPARGRGAPPPPPSRAPTAAPPPPPPSRPSVAVPPPPPNRMYPPPPPALPSSAPSGPPPPPPSVLGVGPVAPPPPPPPPPPPGPPPPPGLPSDGDHQVPTTAGNKAALLDQIREGAQLKKVEQNSRPVSCSGRDALLDQIRQGIQLKSVADGQESTPPTPAPTSGIVGALMEVMQKRSKAIHSSDEDEDEDDEEDFEDDD
modifications: (1)..(505) FL-N-WASP
B6: 105WASP: amino acids 105-501 of SEQ ID NO:2; WASP lacking the WH1 domain (protein, listed as Homo sapiens)
chain: LVYSTPTPFFHTFAGDDCQAGLNFADEDEAQAFRALVQEKIQKRNQRQSGDRRQLPPPPTPANEERRGGLPPLPLHPGGDQGGPPVGPLSLGLATVDIQNPDITSSRYRGLPAPGPSPADKKRSGKKKISKADIGAPSGFKHVSHVGWDPQNGFDVNNLDPDLRSLFSRAGISEAQLTDAETSKLIYDFIEDQGGLEAVRQEMRRQEPLPPPPPPSRGGNQLPRPPIVGGNKGRSGPLPPVPLGIAPPPPTPRGPPPPGRGGPPPPPPPATGRSGPLPPPPPGAGGPPMPPPPPPPPPPPSSGNGPAPPPLPPALVPAGGLAPGGGRGALLDQIRQGIQLNKTPGAPESSALQPPPQSSEGLVGALMHVMQKRSRAIHSSDEGEDQAGDEDEDDEWD
modifications: (1)..(502) FL-WASP

Key:
[1] = target: Arp2/3; experiment: Activities of WASP/N-WASP proteins (Table 4); format: biochemical
Excerpt: The term “variant” or “analogue” generally refers to proteins that are functional equivalents to a native sequence that have similar amino acid sequences and retain, to some extent, one of the activities of the corresponding native protein. Variants/analogues include fragments that retain one or more activities of the corresponding native protein. Examples of WASP and N-WASP activity include, but are not limited to, capacity to: 1) bind Arp2/3 and actin; 2) activate the actin nucleation activity of Arp2/3 (descriptions of assays to detect nucleation activity are provided below); 3) bind an upstream regulator; 4) be regulated by one or more upstream regulators, thereby rendering the WASP or N-WASP protein able to activate the nucleation activity of Arp2/3; and 5) bind downstream regulators initiating signal transduction cascades. Some of the WASP and N-WASP proteins that are provided are able to recapitulate the full activity of WASP or N-WASP, which means that these proteins have all five of the activities just listed. […]
A third class of NPF proteins that can be utilized in some assays include WASP, N-WASP and SCAR proteins that include the WH1 domain but in which the PolyPro region is (e.g., deleted). A fourth class of NPF proteins that can be utilized in some assays are WASP, N-WASP and SCAR deletion mutants in which the PolyPro region is maintained but an N-terminal region (e.g., WH1 domain) is at least partially removed. Some proteins in this class are ones that include the B, CRIB/GBD (WASP and N-WASP), PolyPro and VCA domains, but in which some or all of the WH1 has been removed. One specific example is 98N-WASP, which includes amino acids 98-501 of SEQ ID NO:4. Another specific example is the 105WASP protein, which includes amino acids 105-501 of SEQ ID NO:2 (see FIG. 4B).
As indicated in this table, specific examples of fusion proteins that can be utilized include those that include a segment that encodes full-length WASP or N-WASP, including: Myc-WASP-TAP (SEQ ID NO:14); and Myc-N-WASP-TAP (SEQ ID NO: 16). Examples of fusion proteins that include a WASP or N-WASP deletion mutant domain include: GST-105WASP (SEQ ID NO:18); Myc-105WASP-TAP (SEQ ID NO:20); GST-tev-98N-WASP (SEQ ID NO:22); and Myc-98N-WASP-TAP (SEQ ID NO:24). The TAP tag in these particular fusion proteins has the general structure CBP-tev-ProtA (SEQ ID NO:36). Fusion proteins such as those listed in Table 4 can in some instances be utilized directly, or after one or both of the C- and N-terminal tags are removed. For example, the fusion proteins listed in Table 4 as having a TAP tag can be used once the TAP tag has been cleaved off and/or after the C-terminal tag has been removed.

[2] = Storage stability of purified formin proteins at -80 C; format: physicochemical; details: storage at −80° C.
Procedure: The formins were purified on either Ni-NTA column (His6 tagged proteins) or Gluthatione-Sepharose (GST tagged proteins). Resins were equilibrated with lysis buffer. Clear crude extracts were loaded onto column, columns were washed with lysis buffer followed by washing buffer (50 mM Tris pH 8.0, 50 mM KCl, 1 mM DTT, 1 mM MgCl, 3% glycerol), and proteins were eluted with either 300 mM imidazole (His6-tagged proteins) or 10 mM glutathione (GS-tagged proteins). Eluted proteins were analyzed by SDS PAGE (4-20%) (Invitrogen, San Diego Calif.), fractions were pooled and protein concentrations were measured by Coomassie Plus (Bradford)(Bio-Rad, Hercules, Calif.). Purified proteins were “drop-frozen” in liquid nitrogen and stored at −80° C.

[3] = target: T1, actin (Gallus gallus, UniProt P68139); experiment: Formin nucleated actin/pyrene-actin polymerization assay; format: biochemical, chicken
T1 construct: from tissue
Procedure: G-Actin: Typically chicken actin was used. G-actin can be purchased from Cytoskeleton, Inc. It can also be purified according to Pardee and Spudich (1982) Methods of Cell Biol. 24:271-89, and subsequently gel filtered as discussed by MacLean-Fletcher and Pollard (1980) Biochem Biophys. Res. Commun. 96:18-27.
Acrylodan-Actin and Pyrene-Actin: Typically chicken actin was utilized. Pyrene labeled actin was prepared according to methods described in Kouyama and Mihashi (1981) Eur. J. Biochem. 114:33-38 or as described by Cooper et al. (1983) J. Muscle Res. Cell Motility 4:253-62. Alternatively, it can be purchased from Cytoskeleton, Inc. Acrylodan-labeled actin was prepared by modification of the pyrene-labeling protocol described in Cooper et al. (1983) J. Muscle Res. Cell Motility 4:253-62.
G-actin and pyrene-actin were prepared as described in Example 7.
Activity of purified formins from the constructs described above in Example 12 was assessed in an actin/pyrene-actin polymerization assay. Polymerization was carried out in G-buffer and was initiated by addition of 10× polymerization mix.
Gel filtered actin and pyrene-actin were diluted in G-buffer to the indicated final concentrations. Either purified C. albicans formin domains or formin domain-enriched fractions were added together with polymerization mix to start actin polymerization. Formin nucleated actin polymerization was monitored on a Gemini plate reader (excitation at 365 nm and emission at 407 nm). Protein components in the actin polymerization assay are provided below.

Molecule	Activate Arp2/3? [1]	Regulated By Which Upstream Regulators? [1]	time stable at −80° C. [2]	other results
B1	Yes	None	–	–
B2	–	–	several	–
B3	–	–	several	formin concentration used to observe saturation [3]: 300 to 500 nM; actin nucleation activity of the formin (in words) ([3]; actin […], pyrene actin 0.5 μM): active, i.e., nucleates actin polymerization
B4	–	–	more than 6 months	biochemical properties compared with the other formin constructs (in words) [3]: best biochemical properties in terms of solubility, stability and activity; lag phase ([3]; 100 nM formin): less than 100 s; time to reach saturation phase ([3]; 100 nM formin): 400 s; activity relative to the formin purified in the single step purification ([3]; after further purification on SP Sepharose): approximately 3 fold
B5	Yes	Cdc42, PIP2, Nck and Rac1	–	Activate Arp2/3? ([1]; listed as 98N-WASP): activate actin nucleation by Arp2/3; Regulated By Which Upstream Regulators? ([1]; listed as 98N-WASP): regulated by Cdc42, PIP2, Nck1, and Rc1
B6	activate actin nucleation by Arp2/3 and Yes	regulated by Cdc42, PIP2, Nck1, and Rc1; also recorded: Cdc42, PIP2, Nck and Rac1	–	–
